Assay results reported in the supplement of paper PMC9112550, “Optimization of the antimicrobial peptide Bac7 by deep mutational scanning” (BMC Biology, 2022).

tested on: Escherichia coli TOP10; experiment: shrunken log2 fold change of peptide-encoding DNA abundance (4.5 h post-induction vs induction); higher = less antimicrobial activity (less host growth inhibition); details: time post-induction: 4.5 h; library: site-saturation at positions 5, 18, 19, 20
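Note: peptides expressed intracellularly from a pBAD plasmid library in pooled LB shake-flask culture, induced with 0.3% L-arabinose, DNA abundance read by NGS, three biological replicates, DESeq2 with apeglm shrinkage.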

Sequence	shrunken log2 fold change
RRIRWRPPRLPRPRPRPHFLPRP	1.46
RRIRQRPPRLPRPRPRPKSKPRP	-0.123
RRIRKRPPRLPRPRPRPYTPPRP	-0.344
RRIRMRPPRLPRPRPRPFSGPRP	-0.0134
RRIRHRPPRLPRPRPRPSMYPRP	-0.0507
RRIRMRPPRLPRPRPRPFFIPRP	-0.247
RRIRHRPPRLPRPRPRPHNVPRP	-0.195
RRIRMRPPRLPRPRPRPCFSPRP	-0.141
RRIRIRPPRLPRPRPRPRVRPRP	0.112
RRIRPRPPRLPRPRPRPVLEPRP	-0.147
RRIRLRPPRLPRPRPRPHIVPRP	-0.105
RRIRTRPPRLPRPRPRPYVQPRP	-0.0752
RRIRKRPPRLPRPRPRPSDVPRP	-0.157
RRIRERPPRLPRPRPRPRTLPRP	-0.17
RRIRMRPPRLPRPRPRPMCDPRP	0.709
RRIRRRPPRLPRPRPRPAAVPRP	0.462
RRIRPRPPRLPRPRPRPGNGPRP	0.349
RRIRTRPPRLPRPRPRPDMWPRP	-0.126
RRIRFRPPRLPRPRPRPYIGPRP	-1.25
RRIRDRPPRLPRPRPRPNCSPRP	0.271
RRIRIRPPRLPRPRPRPEYCPRP	-0.125
RRIRVRPPRLPRPRPRPTQPPRP	-0.0625
RRIRDRPPRLPRPRPRPDNIPRP	-0.112
RRIRQRPPRLPRPRPRPNCCPRP	0.0381
RRIRFRPPRLPRPRPRPSDMPRP	-0.11

Sequence	shrunken log2 fold change
RRIRHRPPRLPRPRPRPGLEPRP	0.00016
RRIRVRPPRLPRPRPRPGVDPRP	0.0334
RRIRLRPPRLPRPRPRPRFAPRP	0.374
RRIRCRPPRLPRPRPRPYVHPRP	-1.53
RRIRMRPPRLPRPRPRPHSIPRP	0.0955
RRIRWRPPRLPRPRPRPQLTPRP	0.325
RRIRCRPPRLPRPRPRPPKPPRP	0.692
RRIRKRPPRLPRPRPRPCYRPRP	-0.0703
RRIRARPPRLPRPRPRPAVPPRP	0.848
RRIRNRPPRLPRPRPRPVLKPRP	0.0485
RRIRHRPPRLPRPRPRPKYLPRP	-0.0216
RRIRSRPPRLPRPRPRPKPGPRP	0.283
RRIRGRPPRLPRPRPRPLDNPRP	0.244
RRIRVRPPRLPRPRPRPRQDPRP	0.582
RRIRFRPPRLPRPRPRPTKHPRP	0.101
RRIRVRPPRLPRPRPRPPCNPRP	-0.356
RRIRPRPPRLPRPRPRPFMKPRP	-0.915
RRIRQRPPRLPRPRPRPRYVPRP	-0.215
RRIRFRPPRLPRPRPRPKCYPRP	-0.233
RRIRNRPPRLPRPRPRPFGRPRP	-0.0535
RRIRWRPPRLPRPRPRPVEMPRP	0.206
RRIRARPPRLPRPRPRPYHEPRP	-0.167
RRIRLRPPRLPRPRPRPDQHPRP	-0.0962
RRIRPRPPRLPRPRPRPDGKPRP	0.25
RRIRVRPPRLPRPRPRPVCHPRP	-0.29

Sequence	shrunken log2 fold change
RRIRHRPPRLPRPRPRPDLRPRP	0.0039
RRIRHRPPRLPRPRPRPRPVPRP	0.22
RRIRSRPPRLPRPRPRPQFGPRP	0.0239
RRIRLRPPRLPRPRPRPDYYPRP	-0.216
RRIRRRPPRLPRPRPRPNVFPRP	0.426
RRIRFRPPRLPRPRPRPLWKPRP	-0.0606
RRIRKRPPRLPRPRPRPLSCPRP	0.0262
RRIRVRPPRLPRPRPRPAHQPRP	0.317
RRIRHRPPRLPRPRPRPEMPPRP	-0.177
RRIRARPPRLPRPRPRPLTYPRP	0.0247
RRIRIRPPRLPRPRPRPHVAPRP	-0.189
RRIRCRPPRLPRPRPRPTNAPRP	0.307
RRIRKRPPRLPRPRPRPIYTPRP	-0.0648
RRIRDRPPRLPRPRPRPWNPPRP	-0.586
RRIRFRPPRLPRPRPRPMEMPRP	-0.0294
RRIRYRPPRLPRPRPRPHTLPRP	-0.959
RRIRARPPRLPRPRPRPIPTPRP	-0.0942
RRIRCRPPRLPRPRPRPFNTPRP	-0.2
RRIRQRPPRLPRPRPRPNIFPRP	-0.496
RRIRGRPPRLPRPRPRPNHDPRP	-0.185
RRIRTRPPRLPRPRPRPMSQPRP	-0.000911
RRIRDRPPRLPRPRPRPRMWPRP	0.0802
RRIRWRPPRLPRPRPRPNNAPRP	-0.295
RRIRHRPPRLPRPRPRPSKQPRP	-0.166
RRIRWRPPRLPRPRPRPSWQPRP	-0.0268
